By Kd is commonly meant the free concentration of one partner at which half of the binding sites on the other are occupied at equilibrium, for simple one-to-one binding. A low value points to tighter binding. By koff is commonly meant the first-order rate constant of dissociation. What is called kon is the second-order rate constant of association.

The assay concerns the target AffiTagged cyclicPfAMA1-DI (folded protein 45) (Plasmodium falciparum). Description: SPR; AffiTagged cyclicPfAMA1-DI held on a nickel-NTA chip (BI-4500, Biosensing Instrument Inc.), PfRON2_(2021-2059) in solution; kinetic fit, average of three repeats. On the technique in general: Surface plasmon resonance follows binding to a sensor surface in real time, without labels.

Take “PfRON2_(2021-2059) peptide (rhoptry neck protein 2 ectodomain peptide) (from UniProt Q8IKV6 2021-2059)”: the Kd came out at 500 nM, the off-rate (koff) came out at 0.0708 s⁻¹ and the kon was found to be 142000 M⁻¹ s⁻¹.
